Assay results taken from US20090202532A1 (TOHOKU UNIVERSITY, published 2009).

Biological target: human EGF receptor 1 (human, UniProt P00533 25-1210)
Assay: cell-based or functional assay

B1: Ex3 scFv-Fc, IgG-type bispecific antibody of OHL-Fc and 5HL-CL (bispecific antibody)
heavy: not shown
light: QVQLVQSGAEVKKPGASVKVSCKASGYTFTSYWMHWVRQAPGQGLEWMGNIYPGSGGTNYAEKFKNRVTMTRDTSISTAYMELSRLRSDDTAVYYCARSGGPYFFDYWGQGTLVTVSSAGGGGSGGGGSGGGGSDIVMTQSPLSLPVTPGEPASISCRSSQNIVHNNGITYLEWYLQKPGQSPQLLIYKVSDRFSGVPDRFSGSGSGTDFTLKISRVEAEDVGVYYCFQGSHIPPTFGQGTKVEIKRTVAAPSVFIFPPSDEQLKSGTASVVCLLNNFYPREAKVQWKVDNALQSGNSQESVTEQDSKDSTYSLSSTLTLSKADYEKHKVYACEVTHQGLSSPVTKSFNRGEC
- cytotoxicity, 51Cr release assay (Colo-Tc, EGFR/CHO and CHO cells): ~0.002 fold of the concentration of Ex3
